“Also recorded” adds a separate entry of the source. Where two headings read alike, the source gives them in different places.
Columns and labels:
[1] = target: DDD of the RII form of PKA (Homo sapiens, UniProt P13861); conditions: Hundsrucker et al., 2006, cited from earlier work
[2] = system: RII isoform of PKA compared with the RI isoform; conditions: 2006, cited from earlier work; for isoform preference of peptide antagonists: Stokka et al.
[3] = system: subcutaneous Ramos Burkitt lymphoma tumors; assay: Therapeutic efficacy in mice bearing a human Burkitt lymphoma xenograft (Ramos); type: in vivo, NCr athymic nu/nu mice
Method: A humanized anti-human CD22 monoclonal antibody, hRFB4, was conjugated with SN-38 as described in U.S. Pat. Nos. 7,999,083 and 8,080,250 (the Examples section of each of which is incorporated herein by reference) at a drug to antibody ratio of 5.71. This antibody drug conjugate (ADC) was tested in mice bearing subcutaneous (s.c.) Ramos Burkitt lymphoma tumors. Efficacy was compared to another anti-CD22 SN-38-ADC, hLL2-SN-38.
To perform this study, 5 week-old female NCr athymic nu/nu mice were injected s.c. with Ramos cells that were harvested from tissue culture (1×10^7 cells per mouse). Once tumors reach approximately 0.2 cm^3 in size, they were divided up into treatment groups. Mice received 250 μg hRFB4-SN-38 i.p. twice weekly for two weeks. Likewise, mice received hLL2-SN-38 or a non-tumor targeting anti-CEACAM5 SN-38-ADC (hMN14-SN-38) at the same dose/schedule as the hRFB4-SN-38. Saline control mice received 100 μL i.p. injections twice weekly for two weeks. Tumors were measured and mice weighed twice weekly. Animals were euthanized for disease progression if their tumor volumes exceeded 1.0 cm^3 in size.

[4] = system: B cells gated from PBMCs of healthy donors; assay: Trogocytosis: surface antigen levels on B cells after overnight treatment of PBMCs, flow cytometry; type: cell-based, human
Method: Peripheral blood mononuclear cells (PBMCs) obtained from healthy donors were incubated overnight (16-24 h) with 10 μg/mL of either epratuzumab or an isotype control mAb (hMN-14) and the relative levels of various antigens on the surface of the B cells were analyzed by flow cytometry. PBMCs from heparinized whole blood of normal donors were isolated by density gradient centrifugation on UNI-SEP tubes (Novamed Ltd, Israel). PBMCs were reconstituted in RPMI media supplemented with 10% heat inactivated fetal bovine serum and plated at a cell density of 1.5×10^6/mL in non-tissue culture treated 48-well plates. […] Stained cells were analyzed by flow cytometry on a FACSCALIBUR® (BD Biosciences) using Flowjo (V7.6.5) software. Initially, the lymphocyte population was gated by side vs. forward scattering, and B cells were further gated from this population with the CD19 signal. The mean fluorescence intensity (MFI), obtained with fluorochrome-conjugated antibodies to various cell surface antigens, on the gated B cells was calculated following treatment with epratuzumab, hMN-14 or without antibody. PBMCs from 16 healthy donors were assessed in various experiments.

[5] = system: patients with SLE who have failed at least one previous therapy; assay: Combination therapy of SLE with hRFB4 and hLL2; type: in vivo, human; conditions: single antibody alone, same dosage and schedule
Method: Patients with SLE who have failed at least one previous therapy receive combination therapy with 160 mg each of hRFB4 and hLL2 (epratuzumab), administered s.c. in 2 injections weekly for four weeks. Control groups receive hRFB4 alone, hLL2 alone or irrelevant antibody (hMN-14) at the same dosage and schedule. […] All serum samples evaluated for anti-human antibodies (HAHA) are negative.

Daudi cells = assay: Dose-response of trogocytosis of CD22 and CD19 from Daudi cells (FIG. 6A, 6B); type: cell-based, human
[6] = system: rheumatoid arthritis patients who have failed at least one TNFα inhibitor; type: in vivo, human
Method: Patients who have failed therapy with at least one TNFα inhibitor receive 4 doses of 40, 80, 160 or 320 mg hRFB4 injected s.c. every week or every two weeks. The antibody is either administered alone or in conjunction with oral methotrexate (10-25 mg/week).

[7] = system: patients with previously untreated or relapsed hairy cell leukemia; type: in vivo, human
Method: Patients with previously untreated or relapsed hairy cell leukemia receive 4 doses of 40, 80, 160 or 320 mg hRFB4 injected s.c. every week or every two weeks.

CD22 = target: T1, CD22 (Homo sapiens, UniProt P20273); assay: Binding affinity for CD22+ Daudi cells determined by ELISA (FIG. 2)
T1 construct: endogenous in cells; host or cells: Daudi (Burkitt lymphoma) cells
Method: FIG. 2. Comparative binding affinity for CD22+ Daudi cells of hLL2 IgG, hRFB4 IgG, chimeric RFB4 conjugated to AD2 peptide, and hMN-14 IgG, as determined by ELISA. The binding affinity of hRFB4 as determined for Daudi cells is about 10-fold higher than that of hLL2 and about 30% higher than the chimeric RFB4.
The hRFB4 antibody was prepared as described above, resulting in a humanized anti-CD22 antibody with variable region sequences as shown in FIG. 1A and FIG. 1B (SEQ ID NO:7 and SEQ ID NO:8). After expression, the binding affinity or CD22+ Daudi cells was compared to that of the hLL2 antibody, comprising the same FR and constant region sequences but different CDR sequences, and to the chimeric RFB4 antibody, comprising the same CDR sequences but different FR and constant region sequences.

[8] = system: patients with moderately active SLE; assay: Open-label study of hRFB4 in systemic lupus erythematosus; type: in vivo, human
Method: An open-label, single-center study of patients with moderately active SLE (total British Isles Lupus Assessment Group (BILAG) score 6 to 12) is conducted. Patients receive dosages of hRFB4 of 50, 100, 200, and 400 mg subcutaneously (SC) every week for 6 weeks. Evaluations include safety, SLE activity (BILAG), blood levels of B and T cells, human anti-RFB4 antibody (HAHA) titers, and levels of cell surface CD19, CD20, CD21, CD22 and CD79b on B cells. It is determined that a dosage of 50-100 mg per SC injection results in optimal depletion of B cell CD19, while producing less than 50% depletion of normal B cells. Subsequently, a subcutaneous dose of 100 mg hRFB4 is administered to a new group of patients with moderately active SLE.

[9] = system: patients with primary Sjögren's syndrome; type: in vivo, human
Method: Patients with primary Sjögren's syndrome receive 8 doses of 20, 40, 80 or 160 mg hRFB4 injected s.c. every week or every two weeks.

Sequence of DDD of the RII form of PKA (P13861 whole entry, canonical isoform): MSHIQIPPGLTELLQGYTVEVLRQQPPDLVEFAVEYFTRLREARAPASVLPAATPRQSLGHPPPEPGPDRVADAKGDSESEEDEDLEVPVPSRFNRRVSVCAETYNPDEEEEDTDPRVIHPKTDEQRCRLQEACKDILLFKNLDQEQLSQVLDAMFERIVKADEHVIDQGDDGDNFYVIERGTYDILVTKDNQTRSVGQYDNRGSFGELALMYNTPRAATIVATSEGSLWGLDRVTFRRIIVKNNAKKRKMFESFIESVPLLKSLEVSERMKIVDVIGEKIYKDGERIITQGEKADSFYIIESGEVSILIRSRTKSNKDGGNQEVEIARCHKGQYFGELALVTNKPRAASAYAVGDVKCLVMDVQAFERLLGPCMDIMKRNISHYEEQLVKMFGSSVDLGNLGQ

QIEYLAKQIVDNAIQQA [AKAP-IS]
Kd ([1]; Alto et al., 2003, read-out: binding constant for DDD): 0.4 nM
affinity for the RII DDD sequence [1]: particularly high affinities

LEQYANQLADQIIKEATE [RIAD]
isoform preference of peptide antagonists [2]: higher affinity for RI

FEELAWKIAKMIWSDVFQQC [PV-38]
isoform preference of peptide antagonists [2]: higher affinity for RI

DLIEEAASRIVDAVIEQVKAAGAY [Ht-31]
isoform preference of peptide antagonists [2]: greater affinity for the RII isoform of PKA

PEDAELVRTSKRLVENAVLKAVQQY [AKAP7δ-L304T-pep]
affinity for the RII DDD sequence [1]: particularly high affinities

PEDAELVRLSKRDVENAVLKAVQQY [AKAP7δ-L308D-pep]
affinity for the RII DDD sequence [1]: particularly high affinities

hMN14-SN-38: non-tumor targeting anti-CEACAM5 SN-38-ADC
median survival time (MST) ([3]; 250 μg i.p. twice weekly for two weeks, days post-therapy initiation, death = tumor exceeding 1.0 cm^3): 5 days

hMN-14: anti-CEACAM5 antibody used as isotype control [reference compound]
effect on levels of the tested surface proteins ([4]; isotype control mAb, 10 μg/mL, overnight): did not affect the levels of any of the tested proteins

hLL2-SN-38
survival compared with hMN14-SN-38 control group ([3]; 250 μg i.p. twice weekly for two weeks): no significant difference
mice tumor free when the study ended ([3]; day 87, 250 μg i.p. twice weekly for two weeks): 1 of 6
survival compared with saline control ([3]; log-rank test, P=0.0012): significantly better than saline control

QIEYVAKQIVDYAIHQA [SuperAKAP-IS]
selectivity for the RII isoform of PKA compared with the RI isoform ([2]; Gold et al.): five order of magnitude higher selectivity

PEDAELVRLSKRLVENAVLKAVQQY [AKAP7δ-wt-pep]
affinity for the RII DDD sequence [1]: particularly high affinities

B1: hRFB4: humanized anti-CD22 antibody with variable region sequences SEQ ID NO:7 and SEQ ID NO:8 (antibody, V domains shown)
VH: QVQLVQSGAEVKKPGSSVKVSCKASGFTFSIYDMSWVRQAPGQGLEWVAYISSGGGTTYYPDTVKGRFTITADESTNTAYMELSSLRSEDTAFYFCARHSGYGSSYGVLFAYWGQGTLVTVSS
VL: DIQLTQSPSSLSASVGDRVTISCRASQDISNYLNWYQQKPGKAPKLLIYYTSILHSGVPSRFSGSGSGTDYTFTISSLQPEDIATYYCQQGNTLPWTFGGGTKVQIKR
objective responses [5]: Objective responses are observed
trogocytosis (MFI of CD22, CD19, CD21, CD79b on B cells) compared with hLL2 ([4]; overnight treatment of PBMCs, FIG. 4A-4D): more efficacious than the hLL2 antibody; also recorded: as capable of mediating trogocytosis as hLL2
minimal concentration to induce the maximal level of trogocytosis of CD19 (Daudi cells; CD19 from Daudi cell, FIG. 6B): 1 ng/mL
minimal concentration to induce the maximal level of trogocytosis of CD22 (Daudi cells; CD22 from Daudi cell, FIG. 6A): 1 ng/mL
concentration inducing the maximal level of trogocytosis of CD19 and CD22 (Daudi cells; dose-response curve, FIG. 6A and 6B): 1 ng/mL
depletion of B cell surface levels of CD19, CD20, CD21, CD22 and CD79b ([6]; 80 mg): moderate level
depletion of B cell surface levels of CD19, CD20, CD21, CD22 and CD79b ([6]; 160 mg): much higher level
B-cell depletion ([6]; all dosage levels): Transient B-cell depletion
human anti-hRFB4 antibody (HAHA) in serum samples ([6]; in vivo): negative
release pattern of s.c. antibody ([6]; in vivo, sc): slow release pattern over several days
objective responses ([6]; s.c., all dose levels): observed at all dose levels
optimum dosage ([6]; six months after treatment): 160 mg
depletion of B cell surface levels of CD19, CD20, CD21, CD22 and CD79b ([7]; 40 mg): moderate level
depletion of B cell surface levels of CD19, CD20, CD21, CD22 and CD79b ([7]; 80 mg): much higher level
B-cell depletion ([7]; all dosage levels): Transient B-cell depletion
objective responses (mostly partial responses) ([7]; dose of 80 mg): 30%
human anti-hRFB4 antibody (HAHA) in serum samples ([7]; in vivo): negative
release pattern of s.c. antibody ([7]; in vivo, sc): slow release pattern over several days
optimum dosage ([7]; six months after treatment): 80 mg
Kd (CD22; CD22+ Daudi cells, FIG. 2): 0.2 nM
binding affinity, higher than the chimeric RFB4 (CD22; Daudi cells, versus chimeric RFB4 conjugated to AD2 peptide): about 30%
patients with BILAG decreases continuing to at least 18 weeks ([8]; 100 mg SC): 92%
decrease of total BILAG scores ([8]; 100 mg SC, all patients): at least 50%
depletion of normal B cells ([8]; 50-100 mg per SC injection, weekly for 6 weeks): less than 50%
immunogenicity ([8]; SLE patients): no evidence of immunogenicity
tolerability ([8]; SLE patients): well tolerated
patients with improvement in at least one BILAG B- or C-level disease activity ([8]; at 6, 10 and 18 weeks): 93%
average decrease of B-cell levels ([8]; at 18 weeks): 35%
patients with multiple BILAG B involvement at baseline who completely resolved all B-level disease activities ([8]; by 18 weeks): 3 patients
median corticosteroid after treatment ([9]; 80 mg group, six months after treatment, decrease from 17.5 mg/day): 8.3 mg/day
B-cell depletion ([9]; all dosage levels): Transient B-cell depletion
human anti-hRFB4 antibody (HAHA) in serum samples ([9]; in vivo): negative
objective responses ([9]; s.c., all dose levels): observed at all dose levels
